Measurements taken from PMC8091583 (FEBS Open Bio, 2021).
Positions count from the first letter of the chain named. Numbers in names are those of the source.

B1: PYL3 V108K V107L (receptor)
chain: MNLAPIHDPSSSSTTTTSSSTPYGLTKDEFSTLDSIIRTHHTFPRSPNTCTSLIAHRVDAPAHAIWRFVRDFANPNKYKHFIKSCTIRVNGNGIKEIKVGTIREVSLKSGLPASTSVEILEVLDEEKRILSFRVLGGEHRLNNYRSVTSVNEFVVLEKDKKKRVYSVVLESYIVDIPQGNTEEDTRMFVDTVVKSNLQNLAVISTASPT
B2: PYL3 V108K V107L V192L (receptor)
chain: B1 chain with V192L
B3: BD-PYL3 V108K V107L V192F (receptor)
chain: B1 chain with V192F
B4: PYL3 V108K V107F (receptor)
chain: B1 chain with L107F
B5: BD-PYL3 V108K V107F V192F (receptor)
chain: B1 chain with L107F, V192F
B6: PYL3 V108K V107L L111F (receptor)
chain: B1 chain with L111F
B7: PYL3 V108K V107L V192L L111F (receptor)
chain: B1 chain with L111F, V192L
B8: BD-PYL3 V108K V107L V192F L111F (receptor)
chain: B1 chain with L111F, V192F
B9: BD-PYL3 V108K V107F V192F L111F (receptor)
chain: B1 chain with L107F, L111F, V192F
B10: PYL3 F81A (receptor)
chain: B1 chain with F81A, L107V, K108V
B11: PYL3 F188A (receptor)
chain: B1 chain with L107V, K108V, F188A
B12: wild-type PYL3 (6x His-tagged) (receptor, Arabidopsis thaliana, UniProt Q9SSM7 1-209, looked up)
chain: B1 chain with L107V, K108V
notes: PYL3 (pyrabactin resistance/Pyr1-like 3), Arabidopsis thaliana, subcloned from a cDNA library into pET-28a-tev; also called PYL3 WT; source: E. coli BL21(Rosseta), purified (Ni-charged resin, SEC Superdex-200)
B13: PYL3 V108A (6x His-tagged) (receptor, Arabidopsis thaliana, UniProt Q9SSM7 1-209, looked up)
chain: B1 chain with L107V, K108A
notes: PYL3, Arabidopsis thaliana, in pET-28a-tev, site-directed mutant; Same limits as m1; source: E. coli BL21(Rosseta), purified (Ni-charged resin, SEC Superdex-200)

Key:
PYL3 with HAB1 [1] = biological target: T1, PYL3 with HAB1 (Arabidopsis thaliana, UniProt Q9SSM7); test: HAB1 phosphatase assay (Promega V2460), phosphopeptide substrate; type: biochemical; conditions: HAB1 0.5 μM, PYL3 1 μM, ABA 5 μM, pH 7.5, 30 °C; ABA promotes inhibition of HAB1 by PYL3
T1 construct: 6xHis-tagged PYL3 plus HAB1 (169-511), GST tag removed by TEV protease; both from E. coli; with Protein phosphatase 2C 16
T1 sequence (Q9SSM7 1-209): B1 chain with L107V, K108V
T1 sequence (Q9CAJ0 169-511 partner): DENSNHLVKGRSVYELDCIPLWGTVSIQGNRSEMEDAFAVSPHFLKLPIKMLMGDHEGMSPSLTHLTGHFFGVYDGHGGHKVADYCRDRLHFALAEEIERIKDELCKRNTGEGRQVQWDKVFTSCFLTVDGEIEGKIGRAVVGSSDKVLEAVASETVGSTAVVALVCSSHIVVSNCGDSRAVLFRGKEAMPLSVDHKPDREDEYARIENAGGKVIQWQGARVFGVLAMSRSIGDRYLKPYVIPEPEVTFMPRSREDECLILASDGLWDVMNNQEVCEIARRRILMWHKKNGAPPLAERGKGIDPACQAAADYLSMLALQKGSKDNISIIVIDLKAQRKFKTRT

PYL3 with HAB1 [2] = biological target: T2, PYL3 with HAB1 (Arabidopsis thaliana, UniProt Q9SSM7, F188A); test: as above; type: biochemical; conditions: read-out: % inhibition of HAB1 with 5 μM ABA
T2 construct: 6xHis-tagged PYL3 plus HAB1 (169-511), GST tag removed by TEV protease; both from E. coli; with Protein phosphatase 2C 16
T2 sequence (Q9SSM7 1-209 F188A): B1 chain with L107V, K108V, F188A
T2 sequence (Q9CAJ0 169-511 partner): T1 sequence (Q9CAJ0 169-511 partner)

PYL3 with HAB1 [3] = biological target: T3, PYL3 with HAB1 (Arabidopsis thaliana, UniProt Q9SSM7, F81A); test: as above; type: biochemical; conditions: read-out: % inhibition of HAB1 with 5 μM ABA
T3 construct: 6xHis-tagged PYL3 plus HAB1 (169-511), GST tag removed by TEV protease; both from E. coli; with Protein phosphatase 2C 16
T3 sequence (Q9SSM7 1-209 F81A): B1 chain with F81A, L107V, K108V
T3 sequence (Q9CAJ0 169-511 partner): T1 sequence (Q9CAJ0 169-511 partner)

[4] = biological target: AD-HAB1 (169-511) (Arabidopsis thaliana) (UniProt Q9CAJ0)
Chain of AD-HAB1 (169-511) (Arabidopsis thaliana) (Q9CAJ0 whole entry): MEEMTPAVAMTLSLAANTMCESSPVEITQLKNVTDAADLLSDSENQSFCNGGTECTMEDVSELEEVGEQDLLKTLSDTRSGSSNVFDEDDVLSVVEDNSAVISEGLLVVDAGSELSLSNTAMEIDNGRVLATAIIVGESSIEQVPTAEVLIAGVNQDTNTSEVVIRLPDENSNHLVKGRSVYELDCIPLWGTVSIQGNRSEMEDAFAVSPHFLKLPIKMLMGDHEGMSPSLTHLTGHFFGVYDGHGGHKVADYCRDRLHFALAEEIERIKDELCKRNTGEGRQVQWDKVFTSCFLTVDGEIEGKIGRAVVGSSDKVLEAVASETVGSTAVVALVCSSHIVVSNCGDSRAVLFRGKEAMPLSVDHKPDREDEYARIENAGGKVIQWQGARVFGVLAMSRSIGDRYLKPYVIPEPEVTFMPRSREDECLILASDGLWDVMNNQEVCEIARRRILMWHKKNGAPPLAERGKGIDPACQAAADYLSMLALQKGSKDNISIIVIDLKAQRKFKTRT

[5] = biological target: AD-HAB1 (169-511) (Arabidopsis thaliana) (UniProt Q9CAJ0); remark: listed apart in the source
[6] = biological target: AD-HAB1 (169-511) (Arabidopsis thaliana) (UniProt Q9CAJ0); remark: listed apart in the source
[7] = biological target: the molecule itself; test: cross-linking; EGS cross-linking gel assay: 20 μg 6x His-tagged PYL3 WT or mutant in PBS (pH 7.5, 150 mM NaCl), 100 μL, increasing EGS, 10 min at room temperature, stopped with Tris-glycine; 10% SDS/PAGE, Coomassie; self-association (dimer)

Molecule | inhibition of HAB1 (0.5 μM) phosphatase activity by 1 μM PYL3 mutant, without ABA [4] [%] | other results
CC1=CC(=O)CC(C)(C)[C@@]1(O)/C=C/C(C)=C\C(=O)O [ABA] |  | HAB1 phosphatase assay (Promega V2460), phosphopeptide substrate (PYL3 with HAB1 [1]): PYL3 could almost completely inhibit the activity of HAB1 in the presence of ABA; inhibition at 5 µM (PYL3 with HAB1 [2]): ~70%; inhibition at 5 µM (PYL3 with HAB1 [3]): ~70%
B1 | 25 | inhibition of HAB1 phosphatase activity by the PYL3 mutant, without ABA (as retold in the discussion, Fig. 3) [5]: 20%
B2 | 50 | 
B3 | 87.5 | 
B4 | 65 | inhibition of HAB1 phosphatase activity by the PYL3 mutant, without ABA (as retold in the discussion, Fig. 3) [5]: 40%
B5 | 90 | 
B6 | 80 | 
B7 | 85 | 
B8 | 92.5 | 
B9 | 98 | 
B10 |  | inhibition of HAB1 (0.5 μM) phosphatase activity by 1 μM PYL3 mutant, with ABA (5 μM) [6]: 70%
B11 |  | inhibition of HAB1 (0.5 μM) phosphatase activity by 1 μM PYL3 mutant, with ABA (5 μM) [6]: 70%
B12 |  | stoichiometry N [7]: 2
B13 |  | stoichiometry N [7]: 2
